Measurements reported in patent US20210246166A1 (Bayer, published 2021).
Numbered stars: 1 amine (or outer) side, 2 acyl side, 3 side chain; on linkers, the order of the positions; unused ones are H or OH. Bridge positions count the residues as written; N and C are the ends. Square brackets hold non-standard residues; d marks the D form. Ends that are not written are not given here. * marks the point of attachment. (Me)R = N(5)-methyl-L-arginine, CN(CCC[C@H](N[*:1])C(=O)[*:2])C(=N)N; Oic = O=C(O)[C@@H]1C[C@@H]2CCCC[C@@H]2N1; Phe(4-Br) = N[C@@H](Cc1ccc(Br)cc1)C(=O)O; Pro(cis-4-F) = O=C(O)[C@@H]1C[C@H](F)CN1; Cyclopentanecarbonyl = O=C(C1CCCC1)*; Hyp = O=C(O)[C@@H]1C[C@@H](O)CN1; tBuAla = CC(C)(C)C[C@H](N)C(=O)O; Pen = CC(C)(S)[C@H](N)C(=O)O; Tle = CC(C)(C)[C@H](N)C(=O)O; NMeC = CN[C@@H](CS)C(=O)O; Orn = NCCC[C@H](N)C(=O)O; Dap = NC[C@H](N)C(=O)O; PEG2 = NCCOCCOCCC(=O)O; Sar = CNCC(=O)O

T1: recombinant human MASP1 active protease (amino acids 297-699, C-terminal His Tag) (human, UniProt P48740 297-699)
T1 sequence: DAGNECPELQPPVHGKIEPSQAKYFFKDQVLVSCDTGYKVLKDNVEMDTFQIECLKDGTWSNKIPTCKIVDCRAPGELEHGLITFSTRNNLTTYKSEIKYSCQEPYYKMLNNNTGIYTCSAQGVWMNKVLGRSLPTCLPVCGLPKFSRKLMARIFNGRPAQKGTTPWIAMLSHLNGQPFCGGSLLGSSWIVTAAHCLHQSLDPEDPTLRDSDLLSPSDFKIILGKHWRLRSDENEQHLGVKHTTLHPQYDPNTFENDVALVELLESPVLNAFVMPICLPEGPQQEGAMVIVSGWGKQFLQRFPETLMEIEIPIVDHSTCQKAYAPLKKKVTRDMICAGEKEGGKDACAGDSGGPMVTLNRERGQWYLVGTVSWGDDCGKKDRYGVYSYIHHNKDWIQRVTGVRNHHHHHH

B1: Example 399: (Orn)-AIC+SRS-((tBu)A)-PPI-((N-Me)C)+IPD-NH2 (peptide)
peptide: [Orn]AICSRS[tBuAla]PPI[NMeC]IPD-NH2
modifications: disulfide 4-12; N-terminus assumed
SMILES: CC[C@H](C)[C@H](NC(=O)[C@H](C)NC(=O)[C@@H](N)CCCN)C(=O)N[C@H]1CSSC[C@@H](C(=O)N[C@H](C(=O)N2CCC[C@H]2C(=O)N[C@@H](CC(=O)O)C(N)=O)[C@@H](C)CC)N(C)C(=O)[C@H]([C@@H](C)CC)NC(=O)[C@@H]2CCCN2C(=O)[C@@H]2CCCN2C(=O)[C@H](CC(C)(C)C)NC(=O)[C@H](CO)NC(=O)[C@H](CCCNC(=N)N)NC(=O)[C@H](CO)NC1=O
B2: Example 402: ((N-Me)G)-I-(Pen)+SRSLPPIC+IPD-OH (peptide)
peptide: [Sar]I[Pen]SRSLPPICIPD-OH
modifications: disulfide 3-11; N-terminus assumed
SMILES: CC[C@H](C)[C@H](NC(=O)CNC)C(=O)N[C@@H]1C(=O)N[C@@H](CO)C(=O)N[C@@H](CCCNC(=N)N)C(=O)N[C@@H](CO)C(=O)N[C@@H](CC(C)C)C(=O)N2CCC[C@H]2C(=O)N2CCC[C@H]2C(=O)N[C@@H]([C@@H](C)CC)C(=O)N[C@H](C(=O)N[C@H](C(=O)N2CCC[C@H]2C(=O)N[C@@H](CC(=O)O)C(=O)O)[C@@H](C)CC)CSSC1(C)C
B3: Example 403: AIC+S-((Me)R)-S-((tBu)A)-PPI-(Pen)+IPD-NH2 (peptide)
peptide: AICS[(Me)R]S[tBuAla]PPI[Pen]IPD-NH2
modifications: disulfide 3-11; N-terminus assumed
SMILES: CC[C@H](C)[C@H](NC(=O)[C@H](C)N)C(=O)N[C@H]1CSSC(C)(C)[C@@H](C(=O)N[C@H](C(=O)N2CCC[C@H]2C(=O)N[C@@H](CC(=O)O)C(N)=O)[C@@H](C)CC)NC(=O)[C@H]([C@@H](C)CC)NC(=O)[C@@H]2CCCN2C(=O)[C@@H]2CCCN2C(=O)[C@H](CC(C)(C)C)NC(=O)[C@H](CO)NC(=O)[C@H](CCCN(C)C(=N)N)NC(=O)[C@H](CO)NC1=O
B4: Example 405: ((N-Me)G)-(Orn)-(Orn)-(Orn)-IC+SRSLP-(Oic)-I-(Pen)+IP-NH2 (peptide)
peptide: [Sar][Orn][Orn][Orn]ICSRSLP[Oic]I[Pen]IP-NH2
modifications: disulfide 6-14; N-terminus assumed
SMILES: CC[C@H](C)[C@H](NC(=O)[C@H](CCCN)NC(=O)[C@H](CCCN)NC(=O)[C@H](CCCN)NC(=O)CNC)C(=O)N[C@H]1CSSC(C)(C)[C@@H](C(=O)N[C@H](C(=O)N2CCC[C@H]2C(N)=O)[C@@H](C)CC)NC(=O)[C@H]([C@@H](C)CC)NC(=O)[C@@H]2C[C@@H]3CCCC[C@@H]3N2C(=O)[C@@H]2CCCN2C(=O)[C@H](CC(C)C)NC(=O)[C@H](CO)NC(=O)[C@H](CCCNC(=N)N)NC(=O)[C@H](CO)NC1=O
B5: Example 408: (Cyclopentanecarboxylic acid)-IC+SRS-((tBu)A)-PPI-((N-Me)C)+I-NH2 (peptide)
peptide: Cyclopentanecarbonyl-ICSRS[tBuAla]PPI[NMeC]I-NH2
modifications: disulfide 2-10
SMILES: CC[C@H](C)[C@H](NC(=O)[C@@H]1CSSC[C@H](NC(=O)[C@@H](NC(=O)C2CCCC2)[C@@H](C)CC)C(=O)N[C@@H](CO)C(=O)N[C@@H](CCCNC(=N)N)C(=O)N[C@@H](CO)C(=O)N[C@@H](CC(C)(C)C)C(=O)N2CCC[C@H]2C(=O)N2CCC[C@H]2C(=O)N[C@@H]([C@@H](C)CC)C(=O)N1C)C(N)=O
B6: Example 409: (PEG1(10 atoms))-GIC+SRSLPPIC+IPD-OH (peptide)
peptide: [PEG2]GICSRSLPPICIPD-OH
modifications: disulfide 4-12; N-terminus assumed
SMILES: CC[C@H](C)[C@H](NC(=O)CNC(=O)CCOCCOCCN)C(=O)N[C@H]1CSSC[C@@H](C(=O)N[C@H](C(=O)N2CCC[C@H]2C(=O)N[C@@H](CC(=O)O)C(=O)O)[C@@H](C)CC)NC(=O)[C@H]([C@@H](C)CC)NC(=O)[C@@H]2CCCN2C(=O)[C@@H]2CCCN2C(=O)[C@H](CC(C)C)NC(=O)[C@H](CO)NC(=O)[C@H](CCCNC(=N)N)NC(=O)[C@H](CO)NC1=O
B7: Example 410: GIC+SRSLP-(Hyp)-IC+IPD-OH (peptide)
peptide: GICSRSLP[Hyp]ICIPD-OH
modifications: disulfide 3-11; N-terminus assumed
SMILES: CC[C@H](C)[C@H](NC(=O)CN)C(=O)N[C@H]1CSSC[C@@H](C(=O)N[C@H](C(=O)N2CCC[C@H]2C(=O)N[C@@H](CC(=O)O)C(=O)O)[C@@H](C)CC)NC(=O)[C@H]([C@@H](C)CC)NC(=O)[C@@H]2C[C@@H](O)CN2C(=O)[C@@H]2CCCN2C(=O)[C@H](CC(C)C)NC(=O)[C@H](CO)NC(=O)[C@H](CCCNC(=N)N)NC(=O)[C@H](CO)NC1=O
B8: Example 411: AIC+SRS-((tBu)G)-PPI-C+IPD-NH2 (peptide)
peptide: AICSRS[Tle]PPICIPD-NH2
modifications: disulfide 3-11; N-terminus assumed
SMILES: CC[C@H](C)[C@H](NC(=O)[C@H](C)N)C(=O)N[C@H]1CSSC[C@@H](C(=O)N[C@H](C(=O)N2CCC[C@H]2C(=O)N[C@@H](CC(=O)O)C(N)=O)[C@@H](C)CC)NC(=O)[C@H]([C@@H](C)CC)NC(=O)[C@@H]2CCCN2C(=O)[C@@H]2CCCN2C(=O)[C@H](C(C)(C)C)NC(=O)[C@H](CO)NC(=O)[C@H](CCCNC(=N)N)NC(=O)[C@H](CO)NC1=O
B9: Example 412: ((N-Me)G)-IC+KRS-((tBu)A)-PPI-(Pen)+IP-NH2 (peptide)
peptide: [Sar]ICKRS[tBuAla]PPI[Pen]IP-NH2
modifications: disulfide 3-11; N-terminus assumed
SMILES: CC[C@H](C)[C@H](NC(=O)CNC)C(=O)N[C@H]1CSSC(C)(C)[C@@H](C(=O)N[C@H](C(=O)N2CCC[C@H]2C(N)=O)[C@@H](C)CC)NC(=O)[C@H]([C@@H](C)CC)NC(=O)[C@@H]2CCCN2C(=O)[C@@H]2CCCN2C(=O)[C@H](CC(C)(C)C)NC(=O)[C@H](CO)NC(=O)[C@H](CCCNC(=N)N)NC(=O)[C@H](CCCCN)NC1=O
B10: Example 413: ((N-Me)G)-IC+SR-(Dap)-LPPIC+IPD-OH (peptide)
peptide: [Sar]ICSR[Dap]LPPICIPD-OH
modifications: disulfide 3-11; N-terminus assumed
SMILES: CC[C@H](C)[C@H](NC(=O)CNC)C(=O)N[C@H]1CSSC[C@@H](C(=O)N[C@H](C(=O)N2CCC[C@H]2C(=O)N[C@@H](CC(=O)O)C(=O)O)[C@@H](C)CC)NC(=O)[C@H]([C@@H](C)CC)NC(=O)[C@@H]2CCCN2C(=O)[C@@H]2CCCN2C(=O)[C@H](CC(C)C)NC(=O)[C@H](CN)NC(=O)[C@H](CCCNC(=N)N)NC(=O)[C@H](CO)NC1=O
B11: Example 414: GIC+SRSLP-((cis-Fluoro)P)-IC+IPD-OH (peptide)
peptide: GICSRSLP[Pro(cis-4-F)]ICIPD-OH
modifications: disulfide 3-11; N-terminus assumed
SMILES: CC[C@H](C)[C@H](NC(=O)CN)C(=O)N[C@H]1CSSC[C@@H](C(=O)N[C@H](C(=O)N2CCC[C@H]2C(=O)N[C@@H](CC(=O)O)C(=O)O)[C@@H](C)CC)NC(=O)[C@H]([C@@H](C)CC)NC(=O)[C@@H]2C[C@H](F)CN2C(=O)[C@@H]2CCCN2C(=O)[C@H](CC(C)C)NC(=O)[C@H](CO)NC(=O)[C@H](CCCNC(=N)N)NC(=O)[C@H](CO)NC1=O
B12: Example 416: GIC+SRS-((4-Bromo)F)-PPIC+IPD-OH (peptide)
peptide: GICSRS[Phe(4-Br)]PPICIPD-OH
modifications: disulfide 3-11; N-terminus assumed
SMILES: CC[C@H](C)[C@H](NC(=O)CN)C(=O)N[C@H]1CSSC[C@@H](C(=O)N[C@H](C(=O)N2CCC[C@H]2C(=O)N[C@@H](CC(=O)O)C(=O)O)[C@@H](C)CC)NC(=O)[C@H]([C@@H](C)CC)NC(=O)[C@@H]2CCCN2C(=O)[C@@H]2CCCN2C(=O)[C@H](Cc2ccc(Br)cc2)NC(=O)[C@H](CO)NC(=O)[C@H](CCCNC(=N)N)NC(=O)[C@H](CO)NC1=O
B13: Example 418: AIC+SRSLP-(Oic)-I-(Pen)+IPN-OH (peptide)
peptide: AICSRSLP[Oic]I[Pen]IPN-OH
modifications: disulfide 3-11; N-terminus assumed
SMILES: CC[C@H](C)[C@H](NC(=O)[C@H](C)N)C(=O)N[C@H]1CSSC(C)(C)[C@@H](C(=O)N[C@H](C(=O)N2CCC[C@H]2C(=O)N[C@@H](CC(N)=O)C(=O)O)[C@@H](C)CC)NC(=O)[C@H]([C@@H](C)CC)NC(=O)[C@@H]2C[C@@H]3CCCC[C@@H]3N2C(=O)[C@@H]2CCCN2C(=O)[C@H](CC(C)C)NC(=O)[C@H](CO)NC(=O)[C@H](CCCNC(=N)N)NC(=O)[C@H](CO)NC1=O

target: T1, recombinant human MASP1 active protease …; assay: cell-based or functional assay

Row | Binder | human MASP1 IC50
1 | Pivalic-ICSRS[tBuAla]PPI[NMeC]I-NH2 (disulfide 2-10) [Example 398: (Pivalic)-IC+SRS-((tBu)A)-PPI-((N-Me)C)+I-NH2] | 54 nM
2 | B1 | 55 nM
3 | B2 | 58 nM
4 | B3 | 59 nM
5 | B4 | 63 nM
6 | B5 | 69 nM
7 | B6 | 71 nM
8 | B7 | 76 nM
9 | B8 | 76 nM
10 | B9 | 77 nM
11 | B10 | 78 nM
12 | B11 | 86 nM
13 | B12 | 87 nM
14 | AICSRSLPPIC[(2S,3S)‑2‑((Amino)methyl)‑3‑methylpentanoic acid]PD-NH2 (disulfide 3-11) [Example 417: AIC+SRSLPPIC+((2S,3S)-2-((Amino)methyl)-3-methylpentanoic acid)-PD-NH2] | 89 nM
15 | B13 | 1.8 nM
16 | [Sar]ICSRSLP[Oic]I[Pen]I[5‑Azaspiro(2.4)heptane‑1‑carboxylic acid]-OH (disulfide 3-11) [Example 419: ((N-Me)G)-IC+SRSLP-(Oic)-I-(Pen)+I-((5-Azaspiro[2.4]heptane-1-carboxylic acid)-OH] | 5.1 nM

target: recombinant human MASP2 active protease (amino acids 297-686, C-terminal His Tag) (human, UniProt O00187 297-686); assay: cell-based or functional assay
Sequence (O00187 other isoform, or with tags, fused parts or gaps limits assumed): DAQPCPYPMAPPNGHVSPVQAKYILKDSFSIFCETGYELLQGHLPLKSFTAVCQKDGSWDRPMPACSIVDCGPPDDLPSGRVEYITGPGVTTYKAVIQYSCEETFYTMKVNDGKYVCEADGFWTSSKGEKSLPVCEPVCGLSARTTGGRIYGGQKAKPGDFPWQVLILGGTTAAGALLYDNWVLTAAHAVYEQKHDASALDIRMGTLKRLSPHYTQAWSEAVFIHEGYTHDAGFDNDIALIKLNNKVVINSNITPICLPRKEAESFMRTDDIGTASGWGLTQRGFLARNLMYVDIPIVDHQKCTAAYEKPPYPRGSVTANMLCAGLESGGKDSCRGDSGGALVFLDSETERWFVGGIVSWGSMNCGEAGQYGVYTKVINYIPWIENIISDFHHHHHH

Row | Binder | human MASP2 IC50
17 | Pivalic-ICSRS[tBuAla]PPI[NMeC]I-NH2 (disulfide 2-10) [Example 398: (Pivalic)-IC+SRS-((tBu)A)-PPI-((N-Me)C)+I-NH2] | 22 nM
18 | B1 | 520 nM
19 | B2 | 2100 nM
20 | B3 | 740 nM
21 | B4 | 980 nM
22 | B5 | 32 nM
23 | B6 | 570 nM
24 | B7 | 2700 nM
25 | B8 | 2500 nM
26 | B9 | 5000 nM
27 | B10 | 2000 nM
28 | B11 | 4000 nM
29 | B12 | 190 nM
30 | AICSRSLPPIC[(2S,3S)‑2‑((Amino)methyl)‑3‑methylpentanoic acid]PD-NH2 (disulfide 3-11) [Example 417: AIC+SRSLPPIC+((2S,3S)-2-((Amino)methyl)-3-methylpentanoic acid)-PD-NH2] | 17000 nM
31 | B13 | 130 nM
32 | [Sar]ICSRSLP[Oic]I[Pen]I[5‑Azaspiro(2.4)heptane‑1‑carboxylic acid]-OH (disulfide 3-11) [Example 419: ((N-Me)G)-IC+SRSLP-(Oic)-I-(Pen)+I-((5-Azaspiro[2.4]heptane-1-carboxylic acid)-OH] | 100 nM
